Reference: patent US10155985B2, “Evaluation of eosinophilic esophagitis” (CHILDREN'S HOSPITAL MEDICAL CENTER, priority 2004, dated 2018)

Tested on: EE transcriptome
Test: Genome-wide microarray transcript profiling of esophageal biopsies, EE patients vs normal individuals (EE transcriptome)
Conditions: transcript level in esophageal biopsies of EE patients compared to normal individuals (NL); Affymetrix Human Genome U133 plus 2; p<0.01; >1 up-regulated, <1 down-regulated
Procedure: Esophageal tissue obtained from patients previously diagnosed with EE was analyzed. Diagnosis was based on analysis of excised tissue from endoscopic biopsy. Tissues from patients with EE, as well as patients not having EE (controls) were subjected to genome-wide microarray transcript profiling (Affymetrix GeneChip). All work was performed at the Core facility at Children's Hospital Medical Center (Cincinnati Ohio).
Briefly, RNA quality was first assessed using the Agilent bioanaiyzer (Agilent Technologies, Palo Alto Calif.). Only mRNA having a ratio of 28S/18S between 1.3 and 2 were subsequently used. RNA was converted to cDNA with Superscript choice for cDNA synthesis (Invitrogen, Carlsbad Calif.) and subsequently converted to biotinylated cRNA with Enzo High Yield RNA Transcript labeling kit (Enzo Diagnostics, Farmingdale N.Y.). After hybridization to the GeneChip (Affymetrix, Santa Clara Calif.), the chips were automatically washed and stained with streptavidin-phycoerythrin using a fluidics system. The chips were scanned with a Hewlett Packard GeneArray Scanner. Over 30,000 unique genes were screened.
Levels of gene transcripts were determined from data image files, using algorithms in the Microarray Analysis Suite software (Affymetrix). Levels from chip to chip were compared by global scaling. Each gene was typically represented by a probe set of 16 to 20 probe pairs. Each probe pair consisted of a perfect match oligonucleotide and a mismatch oligonucleotide that contained a one base mismatch at a central position. Two measures of gene expression were used, absolute call and average difference. Absolute call is a qualitative measure in which each gene is assigned a call of present, marginal or absent, based on the hybridization of the RNA to the probe set. Average difference is a quantitative measure of the level of gene expression, calculated by taking the difference between […] of every probe pair and averaging the differences over the entire probe set. Data were normalized and an EE transcriptome gene list was created with results having p<0.01 (Welch t-test with or without false rate discovery) and ≥1.5-fold change.
For evaluation of EE using clinical and/or physical assessment, biopsy tissues (obtained from the distal esophagus during routine endoscopy) were submerged in formalin for routine pathological analysis with hematoxylin and eosin staining. Diagnosis was established based on the maximum eosinophil count per high power field (hpf) and basal layer expansion according to method known in the art (e.g., established criteria in Rothenberg et al., Pathogenesis and clinical features of eosinophilic esophagitis. J Allergy Clin Immunol 108 (2001) 891; Attwood et al., Esophageal eosinophilia with dysphagia. A distinct clinicopathologic syndrome. Dig Dis Sci 38 (1993)109; Fox et al., Eosinophilic esophagitis: its not just kid's stuff. Gastrointest Endosc 56 (2002) 26, each of which is expressly incorporated by reference herein in its entirety. Normal individuals (NL), n=13, served as a control and were defined as having 0 eosinophils/hpf and no basal layer expansion. Individuals with EE (n=76) were defined as having >24 eosinophils/hpf and extensive basal layer hyperplasia (expansion to about >⅓ of epithelium).
The data were analyzed by cluster analysis and ordered (standard correlation (A) and distance (B)) using Genespring software. […] Each column represented a separate individual and each line a gene. RNA from each patient was subjected to chip analysis using Affymetrix Human Genome U133 GeneChip plus 2.

B1: SEQ_ID_#953 (nucleic acid, listed as Homo sapiens)
DNA: TGGTTTCGGTCTATTTATCCAGGGACACCACAGCTTTGGAGGCAGCAAACATGCCCATTTGTTACTATTTGCAAAGATGGTGTACACCAAACATGGGCTTTCCGTAAACAAATTAAAAAGTAATAAAGTGGCCCCATCTGCATACTAGAGCAATGTGCTTCCATTTTAATGAAGCTTGCTATAGAAAAGCCATTTGATGGCTTGTCAAAAGCGTGAATGCCTGTGGCTGAACGTGGAAGTATGCTGTGGTGCAAAGACGTAGTCCTTTCTTCCTCCAGTATGCACGGGGCACCTGCCACACCTGCTGCAAGGACCTGGTCCTGCCCCTAGGCCATCTGCTACGCCAAGGAGACCCAGGTCTTTCCAGTTTCTACCAGGCCCTTTAATGCTCTATCCTGTGGCCCACCCAAGGTTGCAGAGCTGGTAAGCTCTGGAGGTTGAACACAGGCAGTCTGGGCAGAGTGCCTGCTCACTGTCCTGCCTCTCCT
Fold Change: 0.627

B2: SEQ_ID_#948 (nucleic acid, listed as Homo sapiens)
DNA: AGAGGCGGGCTTCCCTCGGAAAACGGAGGGTTGAAACCCAGAAAGCTCCTCGGAGCCCTTCTGGGGTTCGGGCGATCTGGGCAGAGAACTCTCGGGTGGCAAGGAATTAAGGGCAGCGCGAACGACGGTCTCTAGACAAGTATGAAGCCTCCCCTGAGTGTGTCCGGCGCTCAGGGGGTGGACCGGGGTGTTGGTTTCAAGGAGGGGGCCATCGTTTGCACCACGGCGTCCAGAAATACTCATCCTTTGCCCTTCGGGGAGGCAACAGAGCAGCCAACTGACTGTTCTGGCCAAAGAGACTGGAGATCCAGTATCAGCAAGCTACTTTCTTGGTAAACCTCCATTTCCCAATGCTCATCTTTGTCCTCTACCCCCACCCATCCCAAGGCAAATGATGAAAACATCTATTGGATCCAGCCTTTGCTATCTTCTCCATGCTGCTCATAGTGGGTCTAGCAATGTCCCATTCTCGGTAATGTTTGGTAGGTCTAAAACATCCTCACGAAATGTTCCCCAAATGTTCTGCTCCAGCTGAGCAACTAATAACAATGGGAAGATGCAGAAAAAAAATGCATGGAGCATAATGTTAGTTTTGGGACTCGTCAGTGGCAACGTTTTAGAGATGCCATGAAGAATTCCTGGTAATAATCCTTCTTCCTACAGCATTTAGCAATGAATACTATGGGATTATGGCTAAAAGATGGTCAAGACTGCCTCAGCCATTAGGATCAGAATTCTAAGTTCCAAAGAAGAGCAAACTCAAGAGGATTTCCTCAGGCCTCTGACTATAGATGCTGCCTGGGGAGAACAGGTGCTACACTCAAAACATTCTCATTTTATTTATATCCTCCCTGAACTAGTACCCAACTCCATAACCCCAGACTCAAATAACAGAAATAAAAGCCATCTCACTGATTATAAGCTCTCTAGTTATTACAAAAATAAATAAGCATCAATCAACCAACAGGCATCAGAATGAGAAAATCACTGATTTGAGACATTCAGGCTGCAGGAAAAGAACACTTTTTGTTAATATGTAACTATATCTTCAGTAGTACAGAAAAATGAGAAGAACGAGAGTTCTTACCTGGATTTGCGGCTCACTTAAAGTAGAGCACCTGAGATGCTGGGAAATCATAAAGATAAATAACCAATCTAACAAATTCCTGCCATGAGACCAAAGTGATCCTTGACTACTCTATTAGTAAGCGACTCTGAGCCAAGAGTACGAACCTGTAAGTGGAGTGGTGGTTGGCCCATTAGAAATCTCTGAAAGATCTAAACATGACAGTTACCTTCCTACTGGACTCATACTTCTCAATTCCCTCTCCTAAAAGAATACTTTTGGGCTGGCCCCAGTGGCTCACACCTGTAATCTCGGCACTTTGGGAAGCCAAGGTGGGAGGATTGCTTGAGGACAAGAGTTTGAGACCAGCTCGGTGGAAACATAGCACCATCCATGTCTCTACC
Fold Change: 0.629

B3: SEQ_ID_#917 (nucleic acid, listed as Homo sapiens)
DNA: TTGTTTGGAAAGATGAAAAATTTATTAGAAAAGATCTTTAAATGGCTTTTACTAAAGCGTCATTTAACAATTTTTCATATTATAGAAACAGCTTTTCATGGATGGTGTGACTGGGTCTGTATCCAAACCCGGTTCGGTTCCTGGAGCCAACGGCGTAGTTAACACTCAGCCTCTTGCAGTTAACACTCAGCCTCTTAACTGGGAGTGGCCCTGGAGCAAGTCGCTGGAATGTTCAAGCTCCGCGTCACTCATCGGTACCAAGTTGATGATCTCTGCCTAGGGTTCTTCGCCACCCTCAGGCTCAAGTCCCAGGAGGCCTCCTCCGCTGACTTGGGTGAACAGCTCTGAGTTCCGGAGAGGGTTCGGTCTGCGGAGAAGCGCGCGAGAGACAAGCATCCTCAAGGTTCTGGTACAAAATTTGGAAAATGACCTGGCGTTGAAATCTTTACTCCTCGTTTAAAAAGACCATCGAAAGGGAAAAAATAAAAGAAATTGCAGTTTATATTTTTGTTATCCCATGAAAAATTAGCTGCAGTGTTTTCCTCTTCATGCCAAAGAGATTAATATTTACGGTGAAGACTTTTCCAGGAAGTCGTGGTTTTCTGGGGCCCTGCCTCTGAGCCTTTTGTTTCCTCCTTTTTAAAAACACCGGATGAAAGACCCAGTGTGCCTTGGATCGCAGAGCGCGGCCGCATGTCTGCTTTGA
Fold Change: 0.637

B4: SEQ_ID_#840 (nucleic acid, listed as Homo sapiens)
DNA: TACCACACATCTTCTTTATTAATGCATTGACAATCAGTGAAGACAATGAAAACCCACCACTTTTGTCCGTGAACTGAGAAAGAAAATGGCAATGTCATATGGCATTAATGATGCATGAGATCTATGGGTGTAGTGTCACGTCTAGGCGTGTAGTAATCCAGTCTTCGGCCTTACTCCAGGGAGAAAGATTCAGCTTTGTTACTTTCCAGTCACTCTCTCCCGTAACACAGCACCAAGACCGTTTAAAGCACTTAATTAATTCACTTCAGCTTCGCTGGAGAGGTCTCAGGGTTCCCGAGACTCCATTACATAATATCTTTCACAAAGTCTATTCCCAGCTCGAATGGAAGATGGATTCTCATCCAGTGTGCGG
Fold Change: 0.665

B5: SEQ_ID_#906 (nucleic acid, listed as Homo sapiens)
DNA: TGCTTTTGTTGTTGTTTTTAATTTAAAAAGACAAAATTGTTCGCCTTGTATAGAAGTAGATACAGCTTAGAGAGCCAAGGTAACAAGAGGGGAAAAGTTTGTGTTGTCTGGTACTTTTGAGGGAGTCAGAAGCCTAAAGGGAGGCTCTAACTCATGATTCTCAGAAGACAACTGTTGTCAACAGTTCAAATGAGAACTGAACGGCCACACTCCTGCAGCTGAAAGGAGTCAATGCGAGCTGAGTTGCTCTCACCGAACAGAGTGCGTTCCCCGGGGAGGCAGGGAAAGGCCGGCTTGCACCTGCTCTGTCACCCAGCTCCACTCTTAGGACAGAAGAGGTCTGGAAAATGTCTGGG
Fold Change: 0.64

B6: SEQ_ID_#909 (nucleic acid, listed as Homo sapiens)
DNA: TGCTTTTGTTGTTGTTTTTAATTTAAAAAGACAAAATTGTTCGCCTTGTATAGAAGTAGATACAGCTTAGAGAGCCAAGGTAACAAGAGGGGAAAAGTTTGTGTTGTCTGGTACTTTTGAGGGAGTCAGAAGCCTAAAGGGAGGCTCTAACTCATGATTCTCAGAAGACAACTGTTGTCAACAGTTCAAATGAGAACTGAACGGCCACACTCCTGCAGCTGAAAGGAGTCAATGCGAGCTGAGTTGCTCTCACCGAACAGAGTGCGTTCCCCGGGGAGGCAGGGAAAGGCCGGCTTGCACCTGCTCTGTCACCCAGCTCCACTCTTAGGACAGAAGAGGTCTGGAAAATGTCTGGG
Fold Change: 0.639

B7: SEQ_ID_#901 (nucleic acid, listed as Homo sapiens)
DNA: CTCCTCGCCCTCCCCACCGACATCATGCTCCAGTTCCTGCTTGGATTTACACTGGGCAACGTGGTTGGAATGTATCTGGCTCAGAACTATGAT
modifications: chemistry not fully specified; the letters are possibly those of the target site
Fold Change: 0.643

B8: SEQ_ID_#915 (nucleic acid, listed as Homo sapiens)
DNA: CAATAGGAGAAGCCAAGAAACGCAGATGCCGATGCTTAATCAACTCCGTCTCTCCCTCTAGTGACTCGGGGATAGCTGCCCTGATGCCAAGGCGATTGTCTTCTGGAAGCAGCCACGCCGTGTGAGGTTCCTCATCACTGCCCTGCATCTCCCTGCGAGCTCTCGGGGATAATTGCAAAATCACGTTTGATTCCAGGGAGCAGAAAGCAGCAGGAGCCGTGAATTCTCCAACTCTTAACTGGTCCTCGACTGAGCCACTTTTCCCTGCCCACCCATCCCTGTGGCGGATTCATTACAGTTATCCAAAGCCGGTTTTAACTTTGCTCCCCCTGGCTCAGAAGTCTGTCAGTGGGTCCTGAGCGGTTCACCATTCAAGTTTATTCCTATCAGCCTGGAATACAATGCTCTATCTG
Fold Change: 0.638
